Reference: patent US10040826

Key:
[1] = biological target: A244 gDΔ11 gp120 (Herpes simplex virus; HIV-1); assay: SPR, mAb captured on anti-Fc surface, monomeric gp120 as analyte
A244 Δ11 gp120 (HIV-1) [2] = assay: as above
[3] = biological target: A244 gp120 (no modifications) (HIV-1); assay: as above
[4] = biological target: A244 gp120 (no modifications) (HIV-1); assay: SPR
[5] = biological target: 92TH023 gp120 (no modifications) (HIV-1); assay: Kd table; row AE.92TH023 gp120, column 697D gD-; method not given
[6] = biological target: A244 gp120 (no modifications) (HIV-1); assay: Kd table; row AE.A244 gp120, column 697D gD-; method not given
[7] = biological target: A244 gp120 (no modifications) (HIV-1); assay: SPR titration, binding to 697D mAb (697-30D); A244gDneg293Tmon at [5] to [40], unit inferred; constant labelled kd1
[8] = biological target: A244 gDΔ11 gp120 (Herpes simplex virus; HIV-1); assay: Kd table; row AE.A244 gp120, column 697D gD+; method not given
[9] = biological target: A244 gp120 (no modifications) (HIV-1); assay: SPR titration, binding to 697D mAb (697-30D); A244gDneg293Tmon at [5] to [40], unit inferred
[10] = biological target: A244 gp120 (no modifications) (HIV-1); assay: SPR titration, binding to 697D mAb (697-30D); A244gDneg293Tmon at [5], [10], [20], [40], unit inferred; constant labelled ka1
[11] = biological target: A244 gDΔ11 gp120 (Herpes simplex virus; HIV-1); assay: SPR
A244 Δ11 gp120 (HIV-1) [12] = assay: SPR
[13] = biological target: A244 gDΔ11 gp120 (Herpes simplex virus; HIV-1); assay: SPR titration, binding to 697D mAb (697-30D); A244 gD+ monomer at [10] to [40], unit inferred
[14] = biological target: MN gDΔ11 gp120 (Herpes simplex virus; HIV-1); assay: Kd table; row B.MN gp120, column 697D gD+; method not given
[15] = biological target: 92TH023 gDΔ11 gp120 (Herpes simplex virus; HIV-1); assay: Kd table; row AE.92TH023 gp120, column 697D gD+; method not given
A244 Δ11 gp120 (HIV-1) [16] = assay: SPR titration, binding to 697D mAb; A244 gDneg D11 at [2] to [50], unit inferred
[17] = biological target: MN-rgp120 (RV144 vaccine immunogen) (Herpes simplex virus; HIV-1); assay: SPR; 697D captured on anti-Fc surface, RV144 MN-rgp120 injected at 5.0-100 µg/mL; fitted curves
[18] = biological target: A244-rgp120 (RV144 vaccine immunogen) (Herpes simplex virus; HIV-1); assay: SPR; 697D captured on anti-Fc surface, RV144 A244-rgp120 injected at 5.0-100 µg/mL; fitted curves [lower row]
[19] = biological target: MN gp120 (no modifications) (HIV-1); assay: Kd table; row B.MN gp120, column 697D gD-; method not given
[20] = biological target: MN-rgp120 (RV144 vaccine immunogen) (Herpes simplex virus; HIV-1); assay: SPR, mAb captured on anti-Fc surface, gp120 as analyte (FIG. 28)
[21] = biological target: A244-rgp120 (RV144 vaccine immunogen) (Herpes simplex virus; HIV-1); assay: as above
[22] = biological target: A244 gDΔ11 gp120 (Herpes simplex virus; HIV-1); assay: SPR titration, binding to 697D mAb (697-30D); A244 gD+ monomer at [10], [20], [30], [40], unit inferred
[23] = biological target: MN gDΔ11 gp120 (Herpes simplex virus; HIV-1); assay: SPR, not detailed
[24] = biological target: 92TH023 gDΔ11 gp120 (Herpes simplex virus; HIV-1); assay: SPR, not detailed
A244 Δ11 gp120 (HIV-1) [25] = assay: SPR titration, binding to 697D mAb; A244 gDneg D11 at [2], [4], [6], [10], [25], [50], unit inferred
[26] = biological target: A244-rgp120 (RV144 vaccine immunogen) (Herpes simplex virus; HIV-1); assay: SPR; A32 captured on anti-Fc surface, RV144 A244-rgp120 injected at 0.5-5 µg/mL; fitted curves [lower row]
[27] = biological target: 92TH023 gp120 (no modifications) (HIV-1); assay: Kd table; row AE.92TH023 gp120, column A32 gD-; method not given
A244 Δ11 gp120 (HIV-1) [28] = assay: SPR blocking on immobilized A244 Δ11 gp120, mAb injected to near saturation, then RV144 vaccinee IgG; against 7B2 control
[29] = biological target: MN-rgp120 (RV144 vaccine immunogen) (Herpes simplex virus; HIV-1); assay: SPR; A32 captured on anti-Fc surface, RV144 MN-rgp120 injected at 0.5-5 µg/mL; fitted curves
[30] = biological target: MN gp120 (no modifications) (HIV-1); assay: Kd table; row B.MN gp120, column A32 gD-; method not given
[31] = biological target: A244 gp120 (no modifications) (HIV-1); assay: Kd table; row AE.A244 gp120, column A32 gD-; method not given
[32] = biological target: MN gDΔ11 gp120 (Herpes simplex virus; HIV-1); assay: Kd table; row B.MN gp120, column A32 gD+; method not given
[33] = biological target: A244 gDΔ11 gp120 (Herpes simplex virus; HIV-1); assay: Kd table; row AE.A244 gp120, column A32 gD+; method not given
A244 Δ11 gp120 (HIV-1) [34] = assay: SPR; A244 gp120 gD- Δ11 293T monomer batch 110608 flowed over immobilised A32; response axis in RU
A244 Δ11 gp120 (HIV-1) [35] = assay: SPR; A244 gp120 gD- Δ11 293T monomer batch 110608 flowed over immobilised A32; ratio to ConS gp140
[36] = biological target: 92TH023 gDΔ11 gp120 (Herpes simplex virus; HIV-1); assay: Kd table; row AE.92TH023 gp120, column A32 gD+; method not given
[37] = biological target: A244 gDΔ11 gp120 (Herpes simplex virus; HIV-1); assay: SPR, Fab amine-coupled to the sensor surface, gp120 flowed
[38] = biological target: A244 gp120 (no modifications) (HIV-1); assay: as above

V2 mAb 2158 (antibody) was tested, and the Kd [1] was 3.7 nM, the koff [1] was 0.0001 s⁻¹ and the kon [1] was 28700 M⁻¹ s⁻¹. It also gave a Kd (A244 Δ11 gp120 (HIV-1) [2]) of 3.68 nM, a koff (A244 Δ11 gp120 (HIV-1) [2]) of 0.00013 s⁻¹ and a kon (A244 Δ11 gp120 (HIV-1) [2]) of 36500 M⁻¹ s⁻¹. For the same substance, the Kd [3] was 11.2 nM, the koff [3] was 0.00019 s⁻¹ and the kon [3] was 16400 M⁻¹ s⁻¹. It also gave a fold lower affinity than for A244gDΔ11 and A244Δ11 gp120 [4] of 3 fold.

V2 mAb 697D (antibody) showed a Kd [5] of 1310 nM, a Kd [6] of 1000 nM and a koff [7] of 0.0063 s⁻¹. It also gave a Kd [1] of 218 nM, a koff [1] of 0.00524 s⁻¹ and a kon [1] of 24900 M⁻¹ s⁻¹. It also gave a Kd (A244 Δ11 gp120 (HIV-1) [2]) of 157 nM, a koff (A244 Δ11 gp120 (HIV-1) [2]) of 0.00518 s⁻¹ and a kon (A244 Δ11 gp120 (HIV-1) [2]) of 26800 M⁻¹ s⁻¹. The Kd [3] was 1470 nM, the koff [3] was 0.007 s⁻¹ and the kon [3] was 4900 M⁻¹ s⁻¹. It also gave a Kd [8] of 180 nM, a Kd [9] of 1900 nM and a kon [10] of 3400 M⁻¹ s⁻¹. It also gave a fold higher affinity than to A244 gp120 [11] of 10 fold, a fold higher affinity than to A244 gp120 (A244 Δ11 gp120 (HIV-1) [12]) of 10 fold and a fold tighter binding than to A244 gp120 with no modifications (A244 Δ11 gp120 (HIV-1) [12]) of 10 fold. It also gave a Kd [13] of 162 nM, a koff [13] of 0.0066 s⁻¹ and a Kd [14] of 488 nM. It also gave a Kd [15] of 734 nM, a Kd (A244 Δ11 gp120 (HIV-1) [16]) of 98.7 nM and a koff (A244 Δ11 gp120 (HIV-1) [16]) of 0.0033 s⁻¹. The Kd [17] was 318 nM, the Kd [18] was 477 nM and the Kd [19] was 1070 nM. The Kd [20] was 477 nM, the Kd [21] was 318 nM and the kon [22] was 40000 M⁻¹ s⁻¹. The fold enhancement of binding against the unmodified protein [23] was 2 to 3 fold, the fold enhancement of binding against the unmodified protein [24] was 2 to 3 fold and the kon (A244 Δ11 gp120 (HIV-1) [25]) was 24700 M⁻¹ s⁻¹.

Substance C1 mAb A32 (antibody) has a Kd [1] of 1 nM, a koff [1] of 0.000133 s⁻¹ and a kon [1] of 134000 M⁻¹ s⁻¹. The Kd (A244 Δ11 gp120 (HIV-1) [2]) was 0.67 nM, the koff (A244 Δ11 gp120 (HIV-1) [2]) was 0.00015 s⁻¹ and the kon (A244 Δ11 gp120 (HIV-1) [2]) was 223000 M⁻¹ s⁻¹. It also gave a Kd [3] of 6.25 nM, a koff [3] of 0.00047 s⁻¹ and a kon [3] of 76800 M⁻¹ s⁻¹. It also gave a Kd [26] of 1.13 nM, a Kd [27] of 4.6 nM and a percent blocking of RV144 vaccinee IgG binding (A244 Δ11 gp120 (HIV-1) [28]) of 66%. It also gave a fold higher affinity than to A244 gp120 [11] of 6 fold, a fold higher affinity than to A244 gp120 (A244 Δ11 gp120 (HIV-1) [12]) of 9 fold and a Kd [29] of 0.21 nM. It also gave a Kd [30] of 0.8 nM, a Kd [31] of 2.6 nM and a Kd [32] of 4.15 nM. For the same substance, the Kd [33] was 0.13 nM, the Req (A244 Δ11 gp120 (HIV-1) [34]) was 2290 and the Relative Binding Env/ConS gp140 (A244 Δ11 gp120 (HIV-1) [35]) was 5.16. For the same substance, the fold enhancement of binding against the unmodified protein [23] was 2 to 3 fold, the fold enhancement of binding against the unmodified protein [24] was 2 to 3 fold and the Kd [36] was 1.35 nM.

In the case of 697D Fab, the Kd [37] is reported as 690 nM, the fold higher affinity than to unmodified A244 gp120 [37] is reported as 8 fold and the fold higher ka than to A244 gp120 [37] is reported as 10 fold. It also gave a Kd [38] of 5700 nM.
